{"source": "patent US20250059241A1", "about": "(SYNGENTA CROP PROTECTION, published 2025)", "binders": {"B1": {"name": "Sf-ABCC2-Mutant (ABCC2 from a Cry1Fa-resistant Spodoptera frugiperda strain, C-terminal FLAG tag) expressed on Sf9 cells (receptor)", "chain": "MDKSNKNTAANGNGGQRAGEPKERVRKKPNILSRIFVWWIFPVLITGNKRDVEEDDLIVPSKKFNSERQGEYFERYWFEEVAIAEREDRDPSLWKAMRRAYWLQYMPGAIFVLLISGLRTAQPLLFSQLLSYWSVDSEMSQQDAGLYALAMLGINFITMMCTHHNNLFVMRFSMKVKIAASSLLFRKLLRMSQVSVGDVAGGKLVNLLSNDVARFDYAFMFLHYLWVVPLQVGVVLYFVYDAAGWAPYVGLFGVIILIMPLQAGLTKLTGVVRRMTAKRTDKRIKLMSEIINGIQVIKMYAWEKPFQLVVKAARAYEMSALRKSIFIRSMFLGFMLFTERSVMFLTVLTLALTGNMISATLIYPIQQYFGIITMNVTLILPMAFASFSEMLISLERIQGFLLLDERSDIQITPKVVNGAGSKLFNNSKKEGGLETGIVLPTKYSPTEANMARPMQDEPNMADYPVQLNKVNATWADLNDNKEMTLKNISSRVRKNKLCAVIGPVGSGKTSLLQLLLRELPVTSGNLSISGTVSYASQEPWLFPATVRENILFGLEYNVAKYKEVCKVCSLLPDFKQFPYGDLSLVGERGVSLSGGQRARINLARAVYREADIYLLDDPLSAVDANVGRQLFDGCIKGYLSGKTCILVTHQIHYLKAADFIVVLNEGSVENMGSYDELMKTGTEFSMLLSDQASEGSDTDKKERPAMMRGISKMSVKSDDEEGEEKVQVLEAEERQSGSLKWDVLGRYMKSVNSWCMVVMAFLVLVITQGAATTTDYWLSFWTNQVDIQTLPEGESKNPELNTQVGLLTTGQYLIVHGSVVLAIIILTQVRILSFVVMTMRASENLHNTIYEKLIVAVMRFFDTNPSGRVLNRFSKDMGAMDELLPRSMLETVQMYLSLASVLVLNAIALPWTLIPTTVLMFIFVFLLKWYINAAQAVKRLEGTTKSPVFGMINSTISGLSTIRSSNSQDRLLNSFDDAQNLHTSAFYTFLGGSTAFGLYLDTLCLIYLGIIMSIFILGDFGELIPVGSVGLAVSQSMVLTMMLQMAAKFTADFLGQMTAVERVLEYTKLPTEENMETGPTTPPKDWPSAGEVTFSNVYLKYSPDDPPVLKDLNFAIKSGWKVGVVGRTGAGKSSLISALFRLSDITGSIKIDGLDTQGIAKKLLRSKISIIPQEPVLFSASLRYNLDPFDNYNDEDIWRALEQVELKESIPALDYKVSEGGTNFSMGQRQLVCLARAILRSNKILIMDEATANVDPQTDALIQKTIRKQFATCTVLTIAHRLNTIMDSDRVLVMDQGVAAEFDHPYILLSNPNSKFSSMVKETGDNMSRILFEVAKTKYESDSKTADYKDDDDK", "notes": "Expressed in Sf9 cells by baculovirus"}}, "target": "T1, Spore-Cry1Fa (Bacillus subtilis spores displaying the Bacillus thuringiensis Cry1Fa protein as a … (Bacillus thuringiensis, UniProt Q03746 1-615))", "T1 construct": "vector pSB634 or pHY300PLK", "T1 sequence": "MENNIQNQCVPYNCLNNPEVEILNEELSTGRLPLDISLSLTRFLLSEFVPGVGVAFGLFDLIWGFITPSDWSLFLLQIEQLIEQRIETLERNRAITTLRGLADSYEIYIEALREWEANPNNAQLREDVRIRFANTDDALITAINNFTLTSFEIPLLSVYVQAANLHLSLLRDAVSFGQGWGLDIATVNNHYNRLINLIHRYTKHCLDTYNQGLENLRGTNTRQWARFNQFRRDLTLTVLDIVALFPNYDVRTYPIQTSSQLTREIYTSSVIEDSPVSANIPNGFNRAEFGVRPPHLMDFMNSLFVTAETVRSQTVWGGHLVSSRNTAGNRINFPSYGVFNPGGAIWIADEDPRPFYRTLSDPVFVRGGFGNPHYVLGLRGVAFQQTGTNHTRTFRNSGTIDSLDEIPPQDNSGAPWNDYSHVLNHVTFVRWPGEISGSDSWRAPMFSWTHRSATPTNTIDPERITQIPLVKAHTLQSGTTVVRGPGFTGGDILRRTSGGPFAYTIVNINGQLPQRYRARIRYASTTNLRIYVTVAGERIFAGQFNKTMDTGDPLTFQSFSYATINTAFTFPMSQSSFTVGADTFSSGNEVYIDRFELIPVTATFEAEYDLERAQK", "experiment": "bright field and fluorescence microscopy of spores mixed with Sf9 cells", "data": [{"binder": "B1", "values": [{"measurement": "binding result", "result": "no binding"}]}]}
